Earlier results in US9919022B2, “Use of angiotensin II (AII) receptor agonists to prevent or reduce hemodialysis-associated skeletal muscle cramps” (priority 2015, dated 2018).
Like-named read-outs stand apart in the source and are kept apart here. Values belong to the compound of their own block, whether it stands above or below them.

serum half-lives (serum): less than one
Compound: CC[C@H](C)[C@H](NC(=O)[C@H](Cc1ccc(O)cc1)NC(=O)[C@@H](N)C(C)C)C(=O)N[C@@H](Cc1cnc[nH]1)C(=O)N1CCC[C@H]1C(=O)N[C@@H](Cc1ccccc1)C(=O)O [angiotensin IV, Val-Tyr-Ile-His-Pro-Phe]

Compound: H-Asp-Arg-Val-Tyr-Ile-His-Pro-Phe-OH (H-DRVYIHPF-OH; listed as Homo sapiens) [angiotensin II]
terminal serum half-life (serum): less than 30 minutes

Compound: Arg-Val-Tyr-Ile-His-Pro-Phe [Angiotensin III]
serum half-lives (in vivo): less than one
